Source: patent US6713269B2, “Methods for identifying potential therapeutic agents for treatment of osteoporosis using mitogenic indices” (co.don Aktiengesellschaft, priority 1995, dated 2004)

Tested on: human osteoblast precursor cells
Experiment: Cell proliferation rate under the influence of growth factors, using bromodeoxyuridine incorporation (BrdU incorporation)
Assay type: cell-based
Details: for Absorbance mean value: 54 h incubation + 18 h BrdU labelling, OD at 405 nm
Protocol: 3,000 osteoblastic cells from fractions t1 to 2 up to the second passage, recovered from osteoporotic patients (OP cells), per well of a 96-well microwell plate were incubated in the presence of 10% FCS and 10% inactivated human control serum in a cell culture medium (α-MEM and HAM-S F12 medium […]) for 48 h, 120 h and 192 h. In parallel, 3,000 osteoblastic cells from non-osteoporotic patients were incubated under the same conditions. The number of intact cells was determined by means of trypan blue staining and counting in a counting chamber. 4. Determination of the cell proliferation rate under the influence of the three growth factors 1, 2 and 3 using bromodeoxyuridine incorporation (BrdU incorporation) Growth factor 1 =TGF-β2
Cells from fraction 1 and/or 2 of each punched-out bone piece up to the 2nd passage were used in the proliferation test.
3 ×10^3 cells from the first and/or second passage per well of a 96-well plate and 200 μl of medium were used.
The cells were cultivated for three days under the conditions previously described and subsequently cultivated further for one day in medium with no serum until subconfluence was reached.
Thereafter, the three growth factors 1, 2 and 3 were added to the cells at four different final concentrations (100, 10, 1, and 0.1 ng/ml medium).
Cells in a medium containing 10% FKS and in a medium containing 5% Ultroser served as controls.
Triplets were set up for all concentrations and controls.
Six wells including cells, to which no bromodeoxyuridine had been added during the proliferation test served as blank controls.
After 54 hours of incubation with the growth factors, the proliferation test (5-Bromo-2′-deoxyuridine Labeling and Detection Kit III by Boehringer Mannheim) was initiated by adding 20 μl of labelling solution diluted 1:90 in 1% BSA medium and subsequent incubation for 18 hours.
The proliferation test was conducted according to the manufacturer's instructions.
Evaluation of the proliferation test was effected by measuring the optical density (OD) at 405 nm in an ELISA reader. After 60 minutes of color development, the absorbance was measured 12 times at intervals of 5 minutes.

B1: TGF-β2: protein growth factor 1 tested for mitogenic effect on osteoblast cells (protein, UniProt P61812 303-414, looked up)
Transforming growth factor …: ALDAAYCFRNVQDNCCLRPLYIDFKRDLGWKWIHEPKGYNANFCAGACPYLWSSDTQHSRVLSLYNTINPEASASPCCVSQDLEPLTILYYIGKTPKIEQLSNMIVKSCKCS
0.1 ng/ml medium
  Absorbance mean value: 0.150
1 ng/ml medium
  Absorbance mean value: 0.170
10 ng/ml medium
  Absorbance mean value: 0.190
100 ng/ml medium
  Absorbance mean value: 0.190
Osteoblast cells from osteoporosis patients, FIG. 5
  mitogenic effect (stimulative capability of cell proliferation, dose-effect curves): significant dose-dependent mitogenic effect
